Columns and labels:
[1] = system: cultured endothelial cells; experiment: Labeled glucosamine administered to cultured endothelial cells; assay type: cell-based
From the text: Indeed, glucosamine can increase synthesis of two main constituents of the endothelial glycocalyx, namely heparan sulfate and hyaluronan. […] Thus, the addition and/or administration of glucosamine can support endothelial glycocalyx production by providing a (necessary and/or rate-limiting) component in the synthesis thereof. Accordingly, glucosamine can be or comprise a molecular precursor of endothelial glycocalyx.

endothelial glycocalyx = experiment: Exogenous labeled SOD administered to mice, localization; assay type: in vivo; conditions: orally and/or intravenously
From the text: By so doing, the local concentration of SOD at the endothelial glycocalyx is increased, providing added or enhanced (site-directed) protection against oxygen radicals at the endothelial glycocalyx. Thus, in addition to (naturally) produced SOD, which may be synthesized and bound to the endothelium, exogenous or administered SOD can (directly) associate with (bind to) endothelial glycocalyx. Accordingly, introduction and/or administration of SOD can provide site-directed antioxidant activity at the endothelial glycocalyx.

[2] = Catalase administered to mice, concentration in blood vessels; assay type: in vivo; conditions: oral and/or intravenous administration
From the text: Thus, in addition to (naturally) produced […], which may be produced and secreted into the blood stream, exogenous or administered catalase can be absorbed into the blood stream and be available for oxidant scavenging at or adjacent to the endothelial glycocalyx (and SOD bound thereto). Accordingly, introduction and/or administration of catalase can also provide antioxidant activity in blood vessels and/or at the endothelial glycocalyx.

**Q.** For `N[C@H]1C(O)O[C@H](CO)[C@@H](O)[C@@H]1O` (stereo partly drawn) [glucosamine, Glucosamine], which “incorporation of labeled glucosamine” value [1] is on record?
**A.** is incorporated in the glycocalyx

**Q.** Which “localization of exogenous labeled SOD” value (endothelial glycocalyx) does the source give for Superoxide dismutase [SOD] here?
**A.** co-localizes (binds (directly) to) the endothelial glycocalyx

**Q.** Which “catalase concentrations in blood vessels” value [2] does the source give for catalase here?
**A.** increases catalase concentrations in blood vessels

Source: US9943572B2, “Synergistic glycocalyx treatment compositions and methods” (Microvascular Health Solutions, LLC, priority 2015, dated 2018)
